Reference: the domain aggregation screens of Martell et al. (2025)

Assay: soluble fraction after stress (log2 fold change); higher = more stays soluble; pooled small domains, quantitative proteomics
Settings: stress: pH 4
How it was run: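 Custom libraries of small protein domains were pooled and exposed to pH 4. High-throughput quantitative proteomics then measured the log2 fold change in the amount of each domain still soluble, with higher values meaning more stayed soluble. This soluble-fraction fold change stands for aggregation propensity.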

In order of falling “soluble fraction (log2)” value:
1. HMETKVIVPKVTGMNSKSAINYLSARGLKYKAVPADSGKSFHVVDQYPKSGTKVSPHSTVYLYS  0.386
2. HMETKIKFQIQTLDELNIRKVADWDAKAITTVKKGQILDVVDTVAAKNGSTPMYRLESGLYITASPKYVKK  0.22
3. HMETLKEVPNLKGQQQEVAKQLLINAGLGVGKINIIEDSTIADGEVVTQSILPNTKVKKDTYVGFTVNKAP  0.22
4. HMESYWVVLRPMAAGTQIGANDLGYRSVALGAAAKNYLAASTNPIGSITRRRLVAGELLQGSSLTDDARA  0.185
5. HMFDDLSTNLRDLAHNYIEKYSPSKQQLKVFLLKKYLMKFKGSKTKKEISEIIDKIISNLEENKYLNDEL  0.179
6. HMEVLTEPKVQSIDTHGEKSTFVIESPNPLQPDEIAKLVGADGISVRVDRTWLKSHRDSTWTYSILTVS  0.163
7. HMEVPFRNAAIFKTRSGDYAIRASYDGVDLGIKPIEKSTARTYFQLTDVKDKESFLNMTARNQYESEIAGI  0.153
8. HMEYLIENYGSVINQARMKKGMTQEQLSSKTGVSQAYIRSIESQNMKPTDAVARKIEFELGIKLFE  0.147
9. HMFASSADGVEGLKTNPIFASTKEKSDAGKLLYTRYLAIGIFRMLELAKATDPKALEALVEAGG  0.147
10. HMFDTVKIGKRIAELRKKRDMTQFELADRLGISYQAVSNWERGNSMPDIAKLPELAEIFGVTVDEILG  0.135
11. HMEWTVEKQAAATLNAWMRKNSEMTSEKKVAVAAGIGPATVNRIMKAEVSTTIGVLSSLARAFGHEAYEMI  0.114
12. HMETQAGELQDAIRDAIAALPPRTREVFLMSRERNLRYGEIAEALGISVKAVEANMSRALRQLREKLSPFL  0.108
13. HMESYDSEIKEVLDLAGKGRWEEAQTKADALREMAPNNSLVERLHGWVLQAAHQRREQALENDIRE  0.101
14. HMFFAGLSPEAARTLDSLPLHSWSSVEQIARQAGLNIETVRKELGLLELSGIALSRQGRFRRA  0.0761
15. HMEVKRANRKERFLEALPYQFSRQDYLNIADKNKIPHKTAEGYITKFVDAGLIHREAHNNYTNPTKA  0.045
16. HMEVKEVDYSAFMTMTEENSISKVEIEENQILFKKKGDDQTTYKTARMDDPALITRLHDQGVDFTGQ  0.0244
17. HMEVPNLIGMTDKDLQRTYFQLPIEAAGDGSVVIKQLPEPGEKVKEGSVIRVLLG  0.00722
18. HMFAKVEGITGDILDKLQQQRGFLALSDKSSPEAIYDTFGVSKKVFKQAIGTLFKQQKISIEAEGIRLV  -0.0102
19. HMETVSFNPDIAVIPDYRHVVILGETTKTIANKYDIPVDILKAANPGLGNNVTKGDRLRVPDKTKLQ  -0.0151
20. HMETPDLTQLNPILDEYRGQKGAVIPVLQKAQKIYGFLPPEVLRRIAAGMRVPLSKIYGVATFYSQFY  -0.0265
21. HMEVSKETFPAYVAVDSLPVYKSASTSSSKVTTIDFGREVTVVETRGGWAKIQYGSYKGFAEIEGMSKN  -0.0269
22. HMEYTTEELDSLLKLYFQTHESINRNEFEQLTSYTRTTASRRLKTLVQAGKLQNIGLYRFPVYKPTEGNF  -0.037
23. HMEVSEGEIREKVESVFSSNPRQAYNYKQISKKLNINDKSERQIVWDVLRKLAGSGKIQEVEHGRFRARAE  -0.0385
24. HMEVVELTDDEKMILATLHDGPVEIGHIKQVVGLSGKKWDAATKSLRQKGLINVVLENEQKLMVK  -0.0453
25. HMEYDEVVVVKQIIPKGKNTMVAHLKHLKEHGETGFLKQAVGYLKLHASEIPFSVDAVISEVH  -0.0529
26. HMEVGVSGTVFNTDSLNVRKGPGTNFDTVTSLKRGSVVEVFEQSAVDGTVWGRIANGWVNMQYVSL  -0.0681
27. HMESVTETFLTNLINRYIADKAGYIISYPSEYRIEVLYHGGQVLDYENLRKSINTYIPAHIGYKLVTI  -0.158
28. HMETVMYLRQIKRPQGIYLAIQESYYDSSKKQSRTRTIESIGYLDNLRKEYEDPIAFFSQKAAAMTSEKKK  -0.177
29. HMFEDYNELDEYLETRFIPTYVLLKQRKNANGEIDHFPSIRLQHIMALKLSEAELEHVMNYLKEKNIRVG  -0.182
30. HMEVEIPSREALLGLVQKHLKPVSFDEFVSHFKLGDERQQVGIKRRLRAMERDGQLVYTKANSYGLPDRM  -0.197
31. HMFEKVKLTLTIPSKYSGSTYSALRNRMNKFSKEEWLSNGDLKIEIEVTGGQKTDIYTLINKLTNGEAIIE  -0.203
32. HMFELDELDLVILKNLANGLSKKQIRVKLKKMDLRPNSESAIDKRVSKLFDEFGAKNSTELVAKLIREGL  -0.234
33. HMEYSKSIKRLREDKNLTVEELAKRLSLDVEEIQKAEDGEDVDQKTLEAIARYFGVQYDSLVEGTAKSK  -0.258
34. HMETDGGDLTPRERDVLSLIGRGLRNAEAASALGLSEHTIAGHIKSVYSKLGISTRAEAALLASRLGL  -0.261
35. HMETYTVPEVLGLTPEQAAQLPEVKDIFTLDVKEEGDFSDKPVGTIVRQSPTEGEHRKGDNLVIEVWLSV  -0.269
36. HMETVQTGTVKVSNSLNVRSGAGTNYSVLGSLSNGAKVEIVGTSGSWYKIKYGSGYGYVSKDYVTVS  -0.28
37. HMFAADIGVGIVDADSLRVRSEPSTGAPIVTSLLRGTQVTVQEKLDGWYRITYNDVSGFVSAEYLIFTADE  -0.297
38. HMFDLKKIYGTILDETKSSLLLSTDDGREVQIIKTDGTEVLASGLGVYVEVAYRDETPDGYPIALTI  -0.298
39. HMESRRVTLLLPYDKAGIADTLRREAAVLSLEYGEDGVTVEAVVKPELWGLVREYVQNDNPK  -0.319
40. HMEVLPLHQVKLKYAEADTILIALKSAQSMLSPRGQLLADNRSQQIFVYDDEAHTATLIEAIKHLDQPL  -0.32
41. HMETLKLRDSGKEVQSLQELLQRQGLSAPMNGIFDEATKSSVIAFQKANGLDADGIVGYKSWETLFTAG  -0.349
42. HMESYTEEMLEKMSVSKLRTIARELQVDNMTREQIRFGKKTELIQNILEFTGREIENMQLYDK  -0.357
43. HMFELVKISENIPIRDLAETLKTTPNEIIKELMVFGVLANINQTLNFDLASKVADKLGFEVELL  -0.363
44. HMFAGEWKQDASGWWYQNDDGSFTRNGWQNISGKQYYFNENGYMLHDTTTPDGKQVGSDGSLV  -0.389
45. HMETIHEMVNRLSSEGFIKNEDGIWYLRDRRGDGTKWLKNPFFESTGEKDAFALIDHLKVNDELLSKLRK  -0.433
46. HMFDGTLSIYPNPSKGIFNLDLLNVKDGEYTITVDNLLGQEVYSEIRNVINSSSKTLDLSNLTKGV  -0.433
47. HMEVPQKTLEILEPWRGRKGFLIPVLQAVQHEFGYVPKEAIETVSREMKMPTAEIYGVVTFYAQFH  -0.513
48. HMEVADAAQRKILQALQVQPLTVEQLSQELRTDTGDLLVSLSMMEITGLIRREAGNTFLAVFAPK  -0.598
49. HMETKPTELMLDVHKLRIGMFVYLDLGWMDHPFPLNRFKISTNAQIEQIKGLRLKQVKVMTALSDPASLL  -0.637
50. HMETMSGTVKWFNTQKGYGFITGDDGAEYFAHQTQIKMDGFRTLDAGDIVEFDVRSEEKGLAAVNIVP  -0.707
51. HMFELTVGTPIRVIREPYFGKLGTVTELPAQLMVVESGTEVRVLKAKIEGEGEVLVPRANVEIIATG  -0.77
52. HMEWGEADFVRLDEALATLRTLSPRQAEVVDLRFFSELSLEETAATLGLSLATVKRDWSVARLYLQRALS  -0.815
53. HMETGGLAQEAERELALLQEQIAHHEALYRKGTPEISDGAFDELFDRYQELADSLGVPADERIDRA  -0.836
54. HMETYSGVERAAILVMYLERTLAKALLDHMNDEEVRRVGMAMASIDRVEGPDIERIVGDFVRELYEVS  -0.857
55. HMFEMPTSLVRTLSAIAIKQPVMQSEIIKLRGAGAYDHIKELIIRELVHRKEEGRSPILTTTKKFQEYFRL  -0.948
56. HMETADREILLREIREIINERVDYNKDITDDEMKELVMNTVFERSRQQYMSIQDKQEIIQAIFNSMR  -1.02
57. HMETAESLLRRLIMLEDPAMQNAMYVLAVMLERGKQLVERAAKPHESGGILRVYEHKKSGDTFVVLDPR  -1.05
58. HMFERIYVFSRDGDIIELPKGSTVLDFAYHVHTHVGNRAQAARVNKRYVPLTYQLKTGEQVEIIIS  -1.05
59. HMETINERVNSIIEREGHTVATFAKKIGVPWTTIKNIVSGRNAPSYDIMVKIINAVDWVDANYLVMG  -1.16
60. HMFFFILNKGAKSGGEITHAVLNGSIVSKPAGWDAFHGLVLAKEKLSSEEIQRQMKELGVEMEIVPL  -1.18
61. HMETYHIQMKGDPSKGIVGFSQLDMVIDKIKRLETEKGIAPYELEVLDGDTMEKYSGEEFLTMHE  -1.21
62. HMEYYWHQLKGLEVVNTRGESLGRVRRLLETGANDVLVLEGEQERLIPYVPDTIKQVDLAKGLIEVAWDRD  -1.23
63. HMFEYDEEEYEKLGPNADLTIKSMTDWGQSLVRKGVWSESDFEEFKIMGGTAQGLRALQKVRSYY  -1.25
64. HMFGDQMQSYLSRLSQIDVDIIALKYGDNFTYREIGLILEMSEDSVRQRAVRARKKLETMIQKG  -1.29
65. HMFEARNTTFSEDGKTITETYGVKRIETEFVSDSTIVQKLYDNDVLTKTKTITFSADGLSIKEDV  -1.33
66. HMFDFMVLGQAIKKARESKEMTREQLAEILDVAPRHIQSIENEGQYPSFPLFIRLVTMFNISVDQY  -1.4
67. HMEYDYKVIDFFKDYYSYLNYQEIEPNILDKQLTTLTEEESAKIAGIMKLDYEDFTRGIEIVTGS  -1.41
68. HMFDDEELDTFAGRQSDSYDQQEVEQFSDVLHTMRQDEVQAWWRSLTLRGISLPDELKDEVIML  -1.6
69. HMFDGNIKIVEDAFSVTIVARGTEVKISGDPENVYLASKTVEGLLTLIDKGEAITDQRVHYVIGLVREG  -1.71
